Data from IntAct's records for PubMed 35512704.

B1: Mothers against decapentaplegic homolog 4 (Homo sapiens), Q13485 (parent)
chain: MDNMSITNTPTSNDACLSIVHSLMCHRQGGESETFAKRAIESLVKKLKEKKDELDSLITAITTNGAHPSKCVTIQRTLDGRLQVAGRKGFPHVIYARLWRWPDLHKNELKHVKYCQYAFDLKCDSVCVNPYHYERVVSPGIDLSGLTLQSNAPSSMMVKDEYVHDFEGQPSLSTEGHSIQTIQHPPSNRASTETYSTPALLAPSESNATSTANFPNIPVASTSQPASILGGSHSEGLLQIASGPQPGQQQNGFTGQPATYHHNSTTTWTGSRTAPYTPNLPHHQNGHLQHHPPMPPHPGHYWPVHNELAFQPPISNHPAPEYWCSIAYFEMDVQVGETFKVPSSCPIVTVDGYVDPSGGDRFCLGQLSNVHRTEAIERARLHIGKGVQLECKGEGDVWVRCLSDHAVFVQSYYLDREAGRAPGDAVHKIYPSAYIKVFDLRQCHRQMQQQAATAQAAAAAQAAAVAGNIPGPGSVGGIAPAISLSAAAGIGVDDLRRLCILRMSFVKGWGPDYPRQSIKETPCWIEIHLHRALQLLDEVLHTMPIADPQPLD
partner: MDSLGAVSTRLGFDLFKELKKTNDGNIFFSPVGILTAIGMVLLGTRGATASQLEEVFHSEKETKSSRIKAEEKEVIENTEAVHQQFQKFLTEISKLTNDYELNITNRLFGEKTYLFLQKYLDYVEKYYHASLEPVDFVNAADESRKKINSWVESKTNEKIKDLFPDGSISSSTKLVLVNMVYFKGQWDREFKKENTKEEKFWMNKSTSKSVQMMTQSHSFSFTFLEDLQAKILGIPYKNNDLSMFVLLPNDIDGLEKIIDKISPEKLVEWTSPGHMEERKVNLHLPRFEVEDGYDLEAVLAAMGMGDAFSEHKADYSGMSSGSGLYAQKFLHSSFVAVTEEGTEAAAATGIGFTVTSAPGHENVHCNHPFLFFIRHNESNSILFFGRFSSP
B2: Mothers against decapentaplegic homolog 4 (Homo sapiens), Q13485 (parent)
chain: B1 chain
partner: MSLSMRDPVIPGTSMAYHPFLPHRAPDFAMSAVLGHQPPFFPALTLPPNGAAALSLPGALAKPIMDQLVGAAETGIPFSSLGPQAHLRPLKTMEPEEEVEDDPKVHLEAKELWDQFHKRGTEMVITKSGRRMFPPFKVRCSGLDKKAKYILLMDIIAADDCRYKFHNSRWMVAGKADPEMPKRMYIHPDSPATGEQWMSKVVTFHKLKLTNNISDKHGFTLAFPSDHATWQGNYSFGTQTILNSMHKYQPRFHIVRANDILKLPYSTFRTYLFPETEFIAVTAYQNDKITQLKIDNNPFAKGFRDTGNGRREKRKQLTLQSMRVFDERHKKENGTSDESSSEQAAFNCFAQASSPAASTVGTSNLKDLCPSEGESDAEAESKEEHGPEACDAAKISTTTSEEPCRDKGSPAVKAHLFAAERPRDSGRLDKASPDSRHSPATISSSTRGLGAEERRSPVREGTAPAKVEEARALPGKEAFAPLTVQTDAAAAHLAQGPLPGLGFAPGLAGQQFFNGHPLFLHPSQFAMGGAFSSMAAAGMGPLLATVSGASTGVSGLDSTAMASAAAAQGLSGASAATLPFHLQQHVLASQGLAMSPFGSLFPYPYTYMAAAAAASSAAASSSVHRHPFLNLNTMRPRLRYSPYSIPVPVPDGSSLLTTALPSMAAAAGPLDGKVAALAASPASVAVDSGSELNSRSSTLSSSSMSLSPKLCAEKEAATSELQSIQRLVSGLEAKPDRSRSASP
B3: Mothers against decapentaplegic homolog 4 (Homo sapiens), Q13485 (parent)
chain: B1 chain
partner: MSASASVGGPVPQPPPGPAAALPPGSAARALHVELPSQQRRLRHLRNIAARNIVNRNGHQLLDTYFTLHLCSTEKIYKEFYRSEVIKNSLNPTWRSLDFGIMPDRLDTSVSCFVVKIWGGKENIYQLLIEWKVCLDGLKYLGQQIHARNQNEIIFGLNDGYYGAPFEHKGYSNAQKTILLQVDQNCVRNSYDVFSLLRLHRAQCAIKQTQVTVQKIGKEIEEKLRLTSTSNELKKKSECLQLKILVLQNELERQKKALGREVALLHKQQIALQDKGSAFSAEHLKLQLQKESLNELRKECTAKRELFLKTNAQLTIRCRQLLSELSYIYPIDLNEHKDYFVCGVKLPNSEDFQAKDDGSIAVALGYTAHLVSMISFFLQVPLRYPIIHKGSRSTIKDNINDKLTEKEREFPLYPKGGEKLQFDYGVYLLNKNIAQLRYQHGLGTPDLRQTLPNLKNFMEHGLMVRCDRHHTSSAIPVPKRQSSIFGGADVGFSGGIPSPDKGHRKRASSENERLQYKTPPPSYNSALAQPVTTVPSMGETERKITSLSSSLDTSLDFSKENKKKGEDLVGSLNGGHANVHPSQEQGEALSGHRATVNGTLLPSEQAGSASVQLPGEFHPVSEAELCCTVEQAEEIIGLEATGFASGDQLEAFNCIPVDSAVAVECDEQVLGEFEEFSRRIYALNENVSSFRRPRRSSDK
B4: Mothers against decapentaplegic homolog 4 (Homo sapiens), Q13485 (parent)
chain: B1 chain
partner: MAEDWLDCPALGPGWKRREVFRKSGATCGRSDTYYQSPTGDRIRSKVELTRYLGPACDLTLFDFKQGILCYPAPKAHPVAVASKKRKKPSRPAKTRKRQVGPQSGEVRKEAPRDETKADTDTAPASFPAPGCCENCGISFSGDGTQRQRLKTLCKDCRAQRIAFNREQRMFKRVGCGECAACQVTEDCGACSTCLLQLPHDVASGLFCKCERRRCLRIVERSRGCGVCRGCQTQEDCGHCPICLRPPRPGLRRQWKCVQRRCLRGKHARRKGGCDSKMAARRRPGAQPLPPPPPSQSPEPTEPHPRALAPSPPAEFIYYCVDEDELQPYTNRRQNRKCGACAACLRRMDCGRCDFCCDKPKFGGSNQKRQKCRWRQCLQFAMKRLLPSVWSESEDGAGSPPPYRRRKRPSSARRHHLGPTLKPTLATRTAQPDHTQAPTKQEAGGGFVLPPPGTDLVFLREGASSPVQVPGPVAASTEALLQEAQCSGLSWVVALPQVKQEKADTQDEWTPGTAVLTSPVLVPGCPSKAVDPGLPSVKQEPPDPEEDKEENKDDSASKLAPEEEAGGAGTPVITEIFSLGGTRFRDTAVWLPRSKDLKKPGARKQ

Variants of: B1
Settings: with spb13_human SERPINB13, Q9UIV8

effect of a mutation on the interaction | Variant
with no effect | R361H

Variants of: B1
Settings: with spb13_human SERPINB13, Q9UIV8
Remark: another data set of the same source

effect of a mutation on the interaction | Variant
with no effect | R361C

Variants of: B2
Settings: with tbx3_human TBX3, O15119

effect of a mutation on the interaction | Variant
with no effect | R361C

Variants of: B2
Settings: with tbx3_human TBX3, O15119
Remark: another data set of the same source

effect of a mutation on the interaction | Variant
with no effect | R361H

Variants of: B2
Settings: with tbx3_human TBX3, O15119
Remark: another data set of the same source

effect of a mutation on the interaction | Variant
with no effect | G386D

Variants of: B2
Settings: with tbx3_human TBX3, O15119
Remark: another data set of the same source

effect of a mutation on the interaction | Variant
with no effect | D351H

Variants of: B3
Settings: with uvrag_human UVRAG

effect of a mutation on the interaction | Variant
with no effect | G386D

Variants of: B3
Settings: with uvrag_human UVRAG
Remark: another data set of the same source

effect of a mutation on the interaction | Variant
with no effect | R361C

Variants of: B3
Settings: with uvrag_human UVRAG
Remark: another data set of the same source

effect of a mutation on the interaction | Variant
with no effect | R361H

Variants of: B3
Settings: with uvrag_human UVRAG
Remark: another data set of the same source

effect of a mutation on the interaction | Variant
with no effect | D351H

Variants of: B4
Settings: with mbd1_human MBD1, Q9UIS9

effect of a mutation on the interaction | Variant
with no effect | R361H

Variants of: B4
Settings: with mbd1_human MBD1, Q9UIS9
Remark: another data set of the same source

effect of a mutation on the interaction | Variant
with no effect | R361C
